{"source": "patent US11813311B2", "about": "“Treatment and prevention of metabolic diseases” (Singapore Health Services PTE LTD., priority 2019, dated 2023)", "molecules": {"B1": {"name": "X209: mouse anti-mouse IL-11Rα IgG (IgG1κ), neutralising; VH SEQ ID NO:24, VL SEQ ID NO:25 (antibody, V domains shown)", "VH": "QVQLQQPGAELVRPGSSVKLSCKASGYTFTNYWMHWLKQRPVQGLEWIGNIGPSDSKTHYNQKFKDKATLTVDKSSSTAYMQLNSLTSEDSAVYYCARGDYVLFTYWGQGTLVTVSA", "VL": "DIVLTQSPATLSLSPGERATLSCRASQSISNNLHWYQQKSHEAPRLLIKYASQSISGIPARFSGSGSGTDFTLSFSSLETEDFAVYFCQQSYSWPLTFGQGTKLEIK", "modifications": "Enx209 VH; Enx209 VL"}}, "tested_on": "HSCs", "assay": "HSC-to-myofibroblast transformation (ACTA2/Collagen I, Operetta)", "assay_type": "cell-based, human", "conditions": "antibody 2 μg/ml, 24 h", "method": "Cells (atrial fibroblasts, HSCs and hepatocytes) were grown and maintained at 37° C. and 5% CO2. The growth medium was renewed every 2-3 days and cells were passaged at 80-90% confluence using standard trypsinization techniques. All the experiments were carried out at low cell passage (P1-P2). Cells were serum-starved for 16 h prior to stimulations. Stimulated cells were compared to unstimulated cells that have been grown for the same duration under the same conditions (serum-free media), but without the stimuli.\nHSCs (5300, ScienCell) were cultured in stellate cells complete media (5301, ScienCell) on poly-L-lysine-coated plates (2 μg/cm2, 0403, ScienCell).\nThe Operetta assay was performed mostly as described previously 11 with minor modifications described here: HSCs or hepatocytes were seeded in 96-well black CellCarrier plates (PerkinElmer) at a density of 5×10^3 cells per well. Following experimental conditions, cells were fixed in 4% paraformaldehyde (PFA, 28908, Thermo Fisher), permeabilized with 0.1% Triton X-100 (Sigma) and non-specific sites were blocked with 0.5% BSA and 0.1% Tween-20 in PBS. Cells were incubated overnight (4° C.) with primary antibodies (1:500), followed by incubation with the appropriate AlexaFluor 488 secondary antibodies (1:1000). Rhodamine Phalloidin staining (1:1000, R415, Thermo Fisher) was performed by overnight incubation (4° C.). […]", "data": [{"molecule": "B1", "values": [{"measurement": "HSC transformation downstream of all factors, including IL-11", "result": "abolished"}]}]}
